From the nanobody polyreactivity screen of Harvey et al. (2022)

Assay: yeast display, Sf9 membrane polyspecificity reagent, FACS + sequencing; frameworks hold sequencing errors
How it was run: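 Using colony PCR, genes from sorted yeast display clones were amplified, then sequenced on MiSeq at 2 × 250 and filtered by CDR length. The clones had been stained with 10% biotinylated, detergent-solubilized Sf9 membrane reagent for 1 hour at 4 °C and sorted by FACS into low and high (top ~1%) gates on anti-HA and streptavidin fluorescence. Polyreactivity labels come from the gate of origin.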
With “QVQLVESGGGLVQAGGSLRLICAASGRIFWQYAMGWYRQAPGKERELVAAISRSGGSTYYADSVKGRFTISRDNAKNTVYLQMNSLKPEDTAVYYCAARKASGVPGSAGRPEYYYWGQGTQVTVSS” the “polyreactivity (PSR sort gate)” value was “high polyreactivity”. For “QVQLVESGGGLVQAGGSLRLICAASGRIFWSNAMRWSRQAPGKVSELVAAISSGGSTYYADSVKGRFTISRDNAKNTVYLQMNRLKPEDTAVYYCATRGIQRGFSRWGGLDYWGQGTLVTVSS”, the “polyreactivity (PSR sort gate)” value was “low polyreactivity”. With “QVQLVESGGGLVQAGGSLRLICAASGRIFYFYAMGWYRQAPGKERELVAAISTSGGSTYYADSVKGRFTISRDNAKNTVYLQMNSLKPEDTAVYYCAARFRYYGSEYDYWGQGTQVTVSS” the “polyreactivity (PSR sort gate)” value was “low polyreactivity”. With “QVQLVESGGGLVQAGGSLRLICAASGRIFYGYAMGWYRQAPGKEREFVAAITVSAGSTYYADSVKGRFTISRDYAKNTVYLQMNSLKPEDTAVYYCAAKRYVYPSYRFDYWGQGTQVTVSS” the “polyreactivity (PSR sort gate)” value was “low polyreactivity”. With “QVQLVESGGGLVQAGGSLRLICAASGRIFYNNAMGWYRQARGKERELVAGISRSSGRTYYADSVTGRFTISRDNAKNTGYLQMNSLKPVDTAVYYCAADWHYRSTARRMGYWGQGTQVTVSS” the “polyreactivity (PSR sort gate)” value was “high polyreactivity”. For “QVQLVESGGGLVQAGGSLRLICAASGRIFYYYTMGWYRQAPGKERELVDTIRSGGSTYYADSVKGRFTISRDNAKNTVYLQMNSLKPEDTAVYYCAAAYRTGRGYGFDYWGQGTQVTVSS”, the “polyreactivity (PSR sort gate)” value was “high polyreactivity”. With “QVQLVESGGGLVQAGGSLRLICAASGRISKRYTMGWYRQAPGKERELVAAINSSTSKSYADSVKGRFTISRDNAKNTVYLQMNSLKPEDTAVYYCNARYNYSYDYNYWGQGTQVTVSS” the “polyreactivity (PSR sort gate)” value was “low polyreactivity”. With “QVQLVESGGGLVQAGGSLRLICAASGRPSVLMLMGLYRQEPGKERELVAAIDDSTDTTYYADSVKGRFTISRDNAKNTVYLQMNSLKPDVTAGYYCADEEGYVKFSGSWSYGYDYWGQGTQVTVSS” the “polyreactivity (PSR sort gate)” value was “high polyreactivity”. With “QVQLVESGGGLVQAGGSLRLICAASGRSFIGNAMGWYSQAPGKDREFDAAISRRGGSTYYADSVKGRFTISRDNEKNTVYLQMNSLKPEDTAVYYCAAGQTTTGILTYYYWGQGTQVTGSS” the “polyreactivity (PSR sort gate)” value was “high polyreactivity”. With “QVQLVESGGGLVQAGGSLRLICAASGRSFQYYVMGWYSQAPGKEWELVAAMNRRGTSTYYADSVKGRFTISRDNAKNTVYLQMNSLKPEDTAVYYCAAVDRDYARTTTYDYWGQGTQVSVSS” the “polyreactivity (PSR sort gate)” value was “high polyreactivity”. With “QVQLVESGGGLVQAGGSLRLICAASGRSFTSNAMGWYRQAAGKEWELVAAINFRGDSTYYADSVKGRFTISRDNAKNTVYLQMNSLKREDTAVYYCAAVGGRSSYRLDYWGQGTQVTVSS” the “polyreactivity (PSR sort gate)” value was “low polyreactivity”. In the case of “QVQLVESGGGLVQAGGSLRLICAASGRTCWKYVMGWYRQAPGKERDLVAVISSDGITNYADSVKGRFTISRDNAKNTVYLQMNSLKPEDTAVYYCNAGPDDYVGYWGKYDYWGQGTQVTVSS”, the “polyreactivity (PSR sort gate)” value was “low polyreactivity”. In the case of “QVQLVESGGGLVQAGGSLRLICAASGRTFAIYAMGWYRQAPGKEREIVAAISWSGGDTYYADSVKGRFTISRDNEKNTVYLQMNSLKPEDTAVYYCAADRYDYSYFGYGAQDYDYWGQGTQLTVSS”, the “polyreactivity (PSR sort gate)” value was “low polyreactivity”. In the case of “QVQLVESGGGLVQAGGSLRLICAASGRTFAYYAMGWYRQAPGKERELVATITWNGGSTYYADSVKGRFTISRDNAKNTVYLQMNSLKPEDTAVYYCAKSVGWWSPPLGDYWGQGTQVTVSS”, the “polyreactivity (PSR sort gate)” value was “low polyreactivity”. For “QVQLVESGGGLVQAGGSLRLICAASGRTFDNYAMGWYRQAPGKEREFVAAITTGVGSTYADSVKGRFTISRDNAKNTVYLQMNSLKPEDTAVYYCAGDSYWLFDAYDYWGQGTKVTVSS”, the “polyreactivity (PSR sort gate)” value was “low polyreactivity”. With “QVQLVESGGGLVQAGGSLRLICAASGRTFGGNAMGWYRQAPGKEWDLVAAISYSDGSKYYADSVKGRFTISRDNANNSVYLQMNSLKPEDTAVYYCAAARHVRTDYLDYDYWGQGTQVTVSS” the “polyreactivity (PSR sort gate)” value was “low polyreactivity”. With “QVQLVESGGGLVQAGGSLRLICAASGRTFGRYAMGWYRQAPGKERELVADIDYGGGSTYYADSEKGRFTISRDNAKNTVYLQMNSLKPEDTAVYYCNARRDIGWGYHMDYWGQGTQVTVSS” the “polyreactivity (PSR sort gate)” value was “high polyreactivity”. With “QVQLVESGGGLVQAGGSLRLICAASGRTFGSNAMGWYTQAPGKERELVAAIRERGGSTYADSVKGRFTISRDNAKNTVYLQMNCLKQEDTAVYYCNAVYVRSSLYYTGWSTFYYWGQGTQVTVSS” the “polyreactivity (PSR sort gate)” value was “low polyreactivity”. For “QVQLVESGGGLVQAGGSLRLICAASGRTFNPYAMGWYRQAPGKERELVAAISSGGNTNYADSVKGRFTISRDNAKNSVYLQMNSLKPEDTAVYYCATGLRWYHQLTGGYWGQGTQVTVSS”, the “polyreactivity (PSR sort gate)” value was “high polyreactivity”. In the case of “QVQLVESGGGLVQAGGSLRLICAASGRTFRDYAMGWYRQAPGKEWELVAVISRRGSSTYYADSVKGRFTISRDNAKNTVYLQMNSLKPEDTAVYYCARVPTTWRYAYGYWGQGTQVTVSS”, the “polyreactivity (PSR sort gate)” value was “high polyreactivity”. For “QVQLVESGGGLVQAGGSLRLICAASGRTFRGYAMGWYRQAPGNERELVAAITKSGGSTYYADSVKGRFTISRDNEKNTVYFQMNSLKPEDTAVYYCAKLRSSRDYDYWGQGTQVTVSS”, the “polyreactivity (PSR sort gate)” value was “high polyreactivity”. For “QVQLVESGGGLVQAGGSLRLICAASGRTFRLYAMGWYRQAPGKERELVAAITRGGRTNYADSVKGRFTISRDNAKNTVYLQMNSLKPEDTAVYYCAARYVERHTDYYYWGQGTQVTVSS”, the “polyreactivity (PSR sort gate)” value was “low polyreactivity”. In the case of “QVQLVESGGGLVQAGGSLRLICAASGRTFRSNDMGWYRQAPGKERELVAANSLGTGTTYYADSVKGRFTISRDNAKNTVYLQMNSLKPEDTAVYYCHTDYRPIDTEYTSGYDYWGQGTQVTVSS”, the “polyreactivity (PSR sort gate)” value was “low polyreactivity”. In the case of “QVQLVESGGGLVQAGGSLRLICAASGRTFRYYAMGWYRQAPGKERELVAAITTGSSTYYADSVKGRFTISRDNAKNTVYLQMNSLKPEDTAVYYCNVFQGTRYGYWGQGTQVTVSS”, the “polyreactivity (PSR sort gate)” value was “low polyreactivity”. For “QVQLVESGGGLVQAGGSLRLICAASGRTFSSYAMGWYRQAPGKERELVAALSRRGGSTYYADSVKGRFTISRDNAKNTVYLQMNSLNPEDTAVYYCAADVYKQYGYYYWGQGTQVTVSS”, the “polyreactivity (PSR sort gate)” value was “high polyreactivity”. For “QVQLVESGGGLVQAGGSLRLICAASGRTFSVYAMGWYRQAPGKERELVAAISWNGGNTYYADSVKGRFTISRDNAKNTVYLQMNSLKPEDTAVYYCAAERFLARRYYYWGQGTQVTVSS”, the “polyreactivity (PSR sort gate)” value was “low polyreactivity”. In the case of “QVQLVESGGGLVQAGGSLRLICAASGRTFVPYAMGWYRQAPGKERELVAAISQSGGRTYYTDSVKGRFTISRDNAKNTVYLQMNSLKPEDTAVYYCAKRYIYRYVWGGGDYWGQGTQVTVSS”, the “polyreactivity (PSR sort gate)” value was “high polyreactivity”. For “QVQLVESGGGLVQAGGSLRLICAASGRTFYRYAMGWYRQAPGKDRELVATISRSGGSTYYADSVKGRFTISRDNAKNTVYLQINSLKPEDTAVYYCAADIPSYYWWRAYDYWGQGTQVTVSS”, the “polyreactivity (PSR sort gate)” value was “low polyreactivity”. With “QVQLVESGGGLVQAGGSLRLICAASGRTFYRYAMGWYRQAPGKERELVAAISRSGTTYYADSVKGRFTISRDNAKNTVYLQMNSLKPEDTAVYYCAAKPAGRQRGGDYWGQGTQVTVSS” the “polyreactivity (PSR sort gate)” value was “high polyreactivity”. In the case of “QVQLVESGGGLVQAGGSLRLICAASGRTLGGNAMGWYRQAPGKERELVAAITNSASTYADSVKGRFTISRDNAKNTVYLQMNSLKPEDTAVYYCNAPDPSDQHGDYWGQGTQVTVSS”, the “polyreactivity (PSR sort gate)” value was “low polyreactivity”. In the case of “QVQLVESGGGLVQAGGSLRLICAASGRTLRRYAMGWYRQAPGKERELVAAISRSGSSTYADSVKGRFTISRDNAKNTVYLQMHSLKPEDTAVYYCNAYQPRYGYWGQGTQVTVSS”, the “polyreactivity (PSR sort gate)” value was “high polyreactivity”. With “QVQLVESGGGLVQAGGSLRLICAASGRTYLWYTMGWYRQAPGKEREFVAAIWSGDSTYYADSVKGRFTISRDNAKNTVYLQMNSLKPEDTAVYYCAARRFRGSYYWGQGTQVTVSS” the “polyreactivity (PSR sort gate)” value was “high polyreactivity”. For “QVQLVESGGGLVQAGGSLRLICAASGSIFDSYTMGWYRQAPGKERELVAAISKNGGSTYYADSVKGRFTISRDNAKNTVYFQMNSLKPEDTAFYYCARSRSGYRYDYWGQGTQVTVSS”, the “polyreactivity (PSR sort gate)” value was “high polyreactivity”. In the case of “QVQLVESGGGLVQAGGSLRLICAASGSIFGYNAMGWYRQAPGKERELVAVINASGASTYYADSVKGRFTISRDNAKNTVYLQMNSLKPEDTAVYYCAKDPFPFPGGDYWGHGTQVTVSS”, the “polyreactivity (PSR sort gate)” value was “low polyreactivity”. In the case of “QVQLVESGGGLVQAGGSLRLICAASGSIFIHNAMGWYRPAPGKERELVAGITTGGSTYYADSVKGRFTISRDNAKNTVYLQMNSLKPEDTAVYYCAVKRPVALTRGNWVTEARDYWGQGTQVTVSS”, the “polyreactivity (PSR sort gate)” value was “low polyreactivity”. With “QVQLVESGGGLVQAGGSLRLICAASGSIFITYDMGWYRQAPGKERELVATISTTGGTTYYADSVKGRFTISRDNAKNTVYLQMNSLKPEDTAVYYCATAGPPRGYYAPITLDDYWGQGTQVTVSS” the “polyreactivity (PSR sort gate)” value was “low polyreactivity”. In the case of “QVQLVESGGGLVQAGGSLRLICAASGSIFPFNAMGWYRQAPGKERELVAAISSSGGSTSYADSVKGRFTISRDNAKNTVYLQMNSLKPEDTAVYYCNVRYRSAGSRYGYWGQGTQVTVSS”, the “polyreactivity (PSR sort gate)” value was “low polyreactivity”. For “QVQLVESGGGLVQAGGSLRLICAASGSIFRYYAMGWYRQAPGKERELVADINGSGGSTYYADSVKGRFTISRDNAKNTVYLQMNSLKPEDTAVYYCATAYGWRRKYYGYDYCGQGTQVTVSS”, the “polyreactivity (PSR sort gate)” value was “high polyreactivity”. In the case of “QVQLVESGGGLVQAGGSLRLICAASGSIFSLYAMGWYRQAPGKQREFVASISRSGGITYYADSVKGRFTISRDNEKNTVYLQMISLKPEDTAVYYCAAVGWVSYRRYDYWGQGTQVTVSS”, the “polyreactivity (PSR sort gate)” value was “high polyreactivity”. For “QVQLVESGGGLVQAGGSLRLICAASGSIFTPNALGWYRPAPGKERELVAAISSSSDRTYYADSVKGRFTISRDNAKNSVFLLMNSLKPEDTAVYYCAAYAQKRYYWGQGTQVTVSS”, the “polyreactivity (PSR sort gate)” value was “high polyreactivity”. In the case of “QVQLVESGGGLVQAGGSLRLICAASGSIFVGNAMCWYSQATGKERELVATITSGGSTYYADSVKGRFTISRDNAMNTVYLQMNSLKPEDTSVYNCAADYEFSKFDYVYWGQGTQVTVSS”, the “polyreactivity (PSR sort gate)” value was “low polyreactivity”.
